The values below come from paper PMC6349121.

This assay concerns the target GST-cIAP1R (cIAP1 RING domain, residues 556-C, with GST) (human) (UniProt Q13490). As to the kind of experiment: SPR; as a1, but UbcH5B–Ub variants diluted in running buffer containing 0.6 mM UbΔGG; GST-cIAP1R coupled to a CM-5 chip, 25 °C; steady-state affinity analysis.

Substance “UbcH5B–Ub in the presence of 0.6 mM UbΔGG (UbcH5B–Ub with backside-bound UbΔGG) (from UniProt P62837 1-147; P0CG47 1-76; P0CG47 1-74) (complex)” yielded a Kd of 220 nM.
